{
  "source": "patent US20030148956A1",
  "about": "(PROCTER AND GAMBLE, published 2003)",
  "note": "Ends that are not written are not given here.",
  "data": [
    {"molecular_target": "corticotropin releasing factor 1 receptor", "assay": "cell-based or functional assay", "units": {"CRF1R EC50": "nM", "CRF1R Emax %": "%"}, "values": [
      {"binder": "ZGPPISIDVPYHLLRKVIEIEKQEKEKQQAANNARLLARI (C-terminal amide)", "note": "[SEQ ID NO 377]", "CRF1R EC50": 1000, "CRF1R Emax %": 25},
      {"binder": "ZGPPISIDVPLQLLRKVIEIEKQEKEKQQAANNARLLARI (C-terminal amide)", "note": "[SEQ ID NO 381]", "CRF1R EC50": 1000, "CRF1R Emax %": 27},
      {"binder": "ZGPPISIDVPIYLLRKVIEIEKQEKEKQQAANNARLLARI (C-terminal amide)", "note": "[SEQ ID NO 379]", "CRF1R EC50": 1000, "CRF1R Emax %": 8},
      {"binder": "ZGPPISIDVPLQLLRKVIEIEKQEKEKQQAANNARLLDTI (C-terminal amide)", "note": "[SEQ ID NO 380]", "CRF1R EC50": 1000, "CRF1R Emax %": 16},
      {"binder": "ZGPPISIDVPFQLLRKVIEIEKQEKEKQQAANNARLLDTI (C-terminal amide)", "note": "[SEQ ID NO 382]", "CRF1R EC50": 1000, "CRF1R Emax %": 8},
      {"binder": "ZGPPISIDVPFQLLRKVIEIEKQEKEKQQAANNARLLARI (C-terminal amide)", "note": "[SEQ ID NO 383]", "CRF1R EC50": 1000, "CRF1R Emax %": 55},
      {"binder": "ZGPPISIDVPYYLLRKVIEIEKQEKEKQQAANNARLLARI (C-terminal amide)", "note": "[SEQ ID NO 378]", "CRF1R EC50": 1000, "CRF1R Emax %": 36},
      {"binder": "ZGPPISIDLPHQLLRKMIEIEKQEKEKQQAANNRLLLDTI (C-terminal amide)", "note": "[SEQ ID NO 212]", "CRF1R EC50": 445, "CRF1R Emax %": 100},
      {"binder": "ZGPPISIDLPWWLLRKMIEIEKQEKEKQQAANNRLLLDTI (C-terminal amide)", "note": "[SEQ ID NO 216]", "CRF1R EC50": 49.8, "CRF1R Emax %": 98},
      {"binder": "ZGPPISIDLPYWLLRKMIEIEKQEKEKQQAANNRLLLDTI (C-terminal amide)", "note": "[SEQ ID NO 215]", "CRF1R EC50": 188, "CRF1R Emax %": 100},
      {"binder": "ZGPPISIDLPQWLLRKMIEIEKQEKEKQQAANNRLLLDTI (C-terminal amide)", "note": "[SEQ ID NO 213]", "CRF1R EC50": 1000, "CRF1R Emax %": 76},
      {"binder": "DNPSLSIDVPLLLLRTLLELEKTQSQRERAEQNARIFARV-NH2", "note": "[SEQ ID NO 384]", "CRF1R EC50": 1000, "CRF1R Emax %": 70.3},
      {"binder": "IVLSLDVVIGLLQILLEQARARAAREQATTNARILARV-NH2", "note": "[SEQ ID NO 214]", "CRF1R EC50": 100, "CRF1R Emax %": 4},
      {"binder": "DNPSLSIDVPLYLLRTLLELEKTQSQRERAEQNARIFARV-NH2", "note": "[SEQ ID NO 387]", "CRF1R EC50": 1000, "CRF1R Emax %": 50.1},
      {"binder": "DNPSLSIDVPFFLLRTLLELEKTQSQRERAEQNARIFARV-NH2", "note": "[SEQ ID NO 386]", "CRF1R EC50": 1000, "CRF1R Emax %": 78.2},
      {"binder": "DNPSLSIDVPLFLLRTLLELEKTQSQRERAEQNARIFARV-NH2", "note": "[SEQ ID NO 385]", "CRF1R EC50": 1000, "CRF1R Emax %": 46}
    ]},
    {"molecular_target": "T1, corticotropin releasing factor 2 receptor", "T1 sequence (Q13324 whole entry, species assumed, looked up)": "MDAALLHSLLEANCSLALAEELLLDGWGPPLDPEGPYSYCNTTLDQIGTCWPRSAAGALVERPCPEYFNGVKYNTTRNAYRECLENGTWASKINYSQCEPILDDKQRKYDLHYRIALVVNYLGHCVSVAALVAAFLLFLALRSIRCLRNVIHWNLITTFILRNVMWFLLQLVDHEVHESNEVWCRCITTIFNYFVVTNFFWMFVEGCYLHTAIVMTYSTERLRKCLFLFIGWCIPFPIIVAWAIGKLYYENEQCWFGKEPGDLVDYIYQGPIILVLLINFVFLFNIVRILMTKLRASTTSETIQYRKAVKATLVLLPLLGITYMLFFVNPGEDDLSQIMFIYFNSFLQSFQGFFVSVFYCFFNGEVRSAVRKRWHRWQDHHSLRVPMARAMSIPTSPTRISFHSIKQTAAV", "assay": "cell-based or functional assay", "units": {"CRF2R EC50": "nM", "CRF2R Emax %": "%"}, "values": [
      {"binder": "ZGPPISIDVPYHLLRKVIEIEKQEKEKQQAANNARLLARI (C-terminal amide)", "note": "[SEQ ID NO 377]", "CRF2R EC50": 19.2, "CRF2R Emax %": 83},
      {"binder": "ZGPPISIDVPLQLLRKVIEIEKQEKEKQQAANNARLLARI (C-terminal amide)", "note": "[SEQ ID NO 381]", "CRF2R EC50": 12.7, "CRF2R Emax %": 99},
      {"binder": "ZGPPISIDVPIYLLRKVIEIEKQEKEKQQAANNARLLARI (C-terminal amide)", "note": "[SEQ ID NO 379]", "CRF2R EC50": 70.5, "CRF2R Emax %": 94},
      {"binder": "ZGPPISIDVPLQLLRKVIEIEKQEKEKQQAANNARLLDTI (C-terminal amide)", "note": "[SEQ ID NO 380]", "CRF2R EC50": 19, "CRF2R Emax %": 100},
      {"binder": "ZGPPISIDVPFQLLRKVIEIEKQEKEKQQAANNARLLDTI (C-terminal amide)", "note": "[SEQ ID NO 382]", "CRF2R EC50": 39.5, "CRF2R Emax %": 100},
      {"binder": "ZGPPISIDVPFQLLRKVIEIEKQEKEKQQAANNARLLARI (C-terminal amide)", "note": "[SEQ ID NO 383]", "CRF2R EC50": 9.31, "CRF2R Emax %": 96},
      {"binder": "ZGPPISIDVPYYLLRKVIEIEKQEKEKQQAANNARLLARI (C-terminal amide)", "note": "[SEQ ID NO 378]", "CRF2R EC50": 14.9, "CRF2R Emax %": 100},
      {"binder": "ZGPPISIDLPHQLLRKMIEIEKQEKEKQQAANNRLLLDTI (C-terminal amide)", "note": "[SEQ ID NO 212]", "CRF2R EC50": 21.3, "CRF2R Emax %": 100},
      {"binder": "ZGPPISIDLPWWLLRKMIEIEKQEKEKQQAANNRLLLDTI (C-terminal amide)", "note": "[SEQ ID NO 216]", "CRF2R EC50": 9.9, "CRF2R Emax %": 90},
      {"binder": "ZGPPISIDLPYWLLRKMIEIEKQEKEKQQAANNRLLLDTI (C-terminal amide)", "note": "[SEQ ID NO 215]", "CRF2R EC50": 4, "CRF2R Emax %": 100},
      {"binder": "ZGPPISIDLPQWLLRKMIEIEKQEKEKQQAANNRLLLDTI (C-terminal amide)", "note": "[SEQ ID NO 213]", "CRF2R EC50": 22.3, "CRF2R Emax %": 99},
      {"binder": "DNPSLSIDVPLLLLRTLLELEKTQSQRERAEQNARIFARV-NH2", "note": "[SEQ ID NO 384]", "CRF2R EC50": 7.1, "CRF2R Emax %": 97.3},
      {"binder": "IVLSLDVVIGLLQILLEQARARAAREQATTNARILARV-NH2", "note": "[SEQ ID NO 214]", "CRF2R EC50": 74.3, "CRF2R Emax %": 60},
      {"binder": "DNPSLSIDVPLYLLRTLLELEKTQSQRERAEQNARIFARV-NH2", "note": "[SEQ ID NO 387]", "CRF2R EC50": 17.9, "CRF2R Emax %": 100},
      {"binder": "DNPSLSIDVPFFLLRTLLELEKTQSQRERAEQNARIFARV-NH2", "note": "[SEQ ID NO 386]", "CRF2R EC50": 8.7, "CRF2R Emax %": 96},
      {"binder": "DNPSLSIDVPLFLLRTLLELEKTQSQRERAEQNARIFARV-NH2", "note": "[SEQ ID NO 385]", "CRF2R EC50": 10.2, "CRF2R Emax %": 100}
    ]}
  ]
}
